± gives the uncertainty stated by the source.
Assay: self-splicing fitness, log relative to wild type (ln ratio); higher = more splicing; Tetrahymena group I intron in knt gene, E. coli kanamycin selection, DiMSum; sequences stand for … in CUCUCU…GGAGGGAAAAGUUAUCAGGCAUGCACCUGGUAGCUAGUCUUUAAACCAAUAGAUUGCAUCGGUUUAAAAGGCAAGACCGUCAAAUUGCGGGAAAGGGGUCAACAGCCGUUCAGUACCAAGUCUCAGGGGAAACUUUGAGAUGGCCUUGCAAAGGGUAUGGUAAUAAGCUGACGGACAUGGUCCUAACCACGCAGCCAAGUCCUAAGUCAACAGAUCUUCUGUUGAUAUGGAUGCAGUUCACAGACUAAAUGUCGGUCGGGGAAGAUGUAUUCUUCUCAUAAGAUAUAGUCGGACCUCUCCUUAAUGGGAGCUAGCGGAUGAAGUGAUGCAACACUGGAGCCGCUGGGAACUAAUUUGUAUGCGAAAGUAUAUUGAUUAGUUUUGGAGUACUCGUGGUCG
Summary of the method: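 Fitness was computed with DiMSum as the error-weighted combination of replicate fold changes, kanamycin versus none, each normalised to wild type. The library randomised all eight intron nucleotides of the P1ex region, with the intron placed in the knt kanamycin-resistance gene on pET-22b(+) in E. coli BL21(DE3). Six replicate transformations were grown overnight at 37°C or 30°C on LB agar with or without 25 μg/mL kanamycin, plus 100 μg/mL carbenicillin, 50 μM IPTG and 0.2% rhamnose. Pooled colonies were amplicon-sequenced on an Illumina HiSeq 2500.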

Row | Sequence | self-splicing fitness (ln) (30 °C) | self-splicing fitness (ln) (37 °C)
1 | ACCAAGCAAUAUUACGAGCC | -3.61 ± 0.2 | -1.08 ± 0.15
2 | GUAAAGCAAUAUUACGCGGU | -2.79 ± 0.12 | -1.87 ± 0.15
3 | GCUCAGCAAUAUUACGUAAU | -0.739 ± 0.072 | 0.436 ± 0.092
4 | GGGCAGCAAUAUUACGGGAC | -2.3 ± 0.18 | -1.61 ± 0.18
5 | AGCCAGCAAUAUUACGGUUA | -0.713 ± 0.13 | -0.226 ± 0.11
6 | UCCCAGCAAUAUUACGAGUU | -3.85 ± 0.2 | -2.45 ± 0.15
7 | AGCUAGCAAUAUUACGUGUU | -1.86 ± 0.14 | -2.11 ± 0.14
8 | AAGCAGCAAUAUUACGCAGC | -2.55 ± 0.16 | -3.41 ± 0.39
9 | AUUUAGCAAUAUUACGGACU | 0.0925 ± 0.11 | 0.805 ± 0.13
10 | UUUCAGCAAUAUUACGACUA | 0.605 ± 0.12 | 0.612 ± 0.12
11 | UGACAGCAAUAUUACGCUGG | -2.21 ± 0.18 | -1.92 ± 0.33
12 | UCCGAGCAAUAUUACGCGGA | -2.27 ± 0.3 | 
13 | UGAUAGCAAUAUUACGCGUU | -2.9 ± 0.24 | -2.54 ± 0.39
14 | ACGGAGCAAUAUUACGAUUG | -3.04 ± 0.25 | -1.43 ± 0.22
15 | UGGAAGCAAUAUUACGGCAG | -1.15 ± 0.16 | -0.772 ± 0.25
16 | GGUGAGCAAUAUUACGUAAC | -2.35 ± 0.43 | -1.22 ± 0.28
17 | AGGAAGCAAUAUUACGUGUC | -3.14 ± 0.27 | -1.57 ± 0.19
18 | GUUGAGCAAUAUUACGUUUC | -2.09 ± 0.2 | -3.1 ± 0.34
19 | UAGUAGCAAUAUUACGCGAG | -1.57 ± 0.12 | -0.941 ± 0.17
20 | UUCAAGCAAUAUUACGCUCG | -3.13 ± 0.33 | -2.15 ± 0.2
21 | AUGCAGCAAUAUUACGGCCG | -1.62 ± 0.27 | -1.05 ± 0.3
22 | CUGCAGCAAUAUUACGAGUG | -0.52 ± 0.053 | 0.112 ± 0.087
23 | UCGGAGCAAUAUUACGCGCA | -0.975 ± 0.23 | 
24 | UCUAAGCAAUAUUACGGUGU | -1.75 ± 0.083 | -1.34 ± 0.093
25 | UCCCAGCAAUAUUACGGACG | -3.93 ± 0.21 | -1.97 ± 0.12
26 | AGGCAGCAAUAUUACGGACA | -0.916 ± 0.12 | -0.346 ± 0.13

Row | Sequence | self-splicing fitness (ln) (30 °C) | self-splicing fitness (ln) (37 °C)
27 | AGAAAGCAAUAUUACGAUGU | -0.998 ± 0.063 | -0.229 ± 0.083
28 | CUAUAGCAAUAUUACGAACU | -3.67 ± 0.43 | 
29 | CUAAAGCAAUAUUACGAAGA | -2.46 ± 0.27 | -1.61 ± 0.3
30 | CCGCAGCAAUAUUACGCCCA |  | -2.55 ± 0.31
31 | AGUCAGCAAUAUUACGGGAG | -3.52 ± 0.15 | -1.41 ± 0.11
32 | AAUGAGCAAUAUUACGAGAG |  | -2.7 ± 0.41
33 | GUGUAGCAAUAUUACGCUGA | -1.22 ± 0.18 | -1.58 ± 0.17
34 | AAAAAGCAAUAUUACGUCUA | -0.394 ± 0.053 | 0.068 ± 0.07
35 | ACACAGCAAUAUUACGCUAG | -1.41 ± 0.075 | -1.06 ± 0.092
36 | UUAGAGCAAUAUUACGUUUA | -2.01 ± 0.13 | -0.913 ± 0.15
37 | GACAAGCAAUAUUACGUCUA | -2.01 ± 0.079 | -1.04 ± 0.082
38 | GAUCAGCAAUAUUACGUUAC | -2.16 ± 0.097 | -1.19 ± 0.11
39 | AGAGAGCAAUAUUACGACAA |  | -2.46 ± 0.48
40 | CUAGAGCAAUAUUACGCCAC |  | -3.44 ± 0.47
41 | GCCUAGCAAUAUUACGAAAU | -2.34 ± 0.12 | -0.297 ± 0.13
42 | UUAGAGCAAUAUUACGACAG | -0.55 ± 0.082 | -0.391 ± 0.1
43 | GCUGAGCAAUAUUACGGCGA | -1.43 ± 0.16 | -1.56 ± 0.2
44 | UUCAAGCAAUAUUACGAGAG | -1.5 ± 0.11 | -1.34 ± 0.11
45 | GUAGAGCAAUAUUACGUGCC |  | -2.12 ± 0.28
46 | ACCAAGCAAUAUUACGGCCU | -0.444 ± 0.072 | -0.31 ± 0.083
47 | UCUCAGCAAUAUUACGGAAG | -1.82 ± 0.18 | -2.93 ± 0.3
48 | AAACAGCAAUAUUACGAAAG | -2.21 ± 0.13 | -1.57 ± 0.18
49 | UCAAAGCAAUAUUACGGCGU | -0.917 ± 0.065 | -0.201 ± 0.086
50 | GACGAGCAAUAUUACGCCUG |  | -1.56 ± 0.47
51 | ACGUAGCAAUAUUACGCAAA | -1.78 ± 0.21 | -2.42 ± 0.3
52 | UAGCAGCAAUAUUACGGUCC | -3.66 ± 0.26 | -2.03 ± 0.24

Row | Sequence | self-splicing fitness (ln) (30 °C) | self-splicing fitness (ln) (37 °C)
53 | UAAAAGCAAUAUUACGCUAG | -1.09 ± 0.07 | -0.327 ± 0.091
54 | CCAGAGCAAUAUUACGUGAA | -3.7 ± 0.16 | -2.32 ± 0.18
55 | UGAUAGCAAUAUUACGGUAU | -3.75 ± 0.22 | -1.92 ± 0.18
56 | UUACAGCAAUAUUACGGUGG | -1.08 ± 0.087 | -0.457 ± 0.1
57 | CUGUAGCAAUAUUACGGUGA | -3.22 ± 0.22 | -2.28 ± 0.24
58 | UAUUAGCAAUAUUACGACGC | -2.92 ± 0.48 | -2.18 ± 0.38
59 | GGGUAGCAAUAUUACGCAUU | -0.339 ± 0.094 | -0.245 ± 0.1
60 | AUCUAGCAAUAUUACGGAGA | -2.16 ± 0.2 | -1.32 ± 0.16
61 | GUCCAGCAAUAUUACGAUCU | -2.44 ± 0.16 | -0.0861 ± 0.12
62 | GAGAAGCAAUAUUACGCCUG | -0.32 ± 0.098 | -0.385 ± 0.17
63 | CCUGAGCAAUAUUACGGAAU | -4.68 ± 0.23 | -2.85 ± 0.16
64 | CACAAGCAAUAUUACGAAGA | -2.71 ± 0.18 | -2.36 ± 0.2
65 | CUGGAGCAAUAUUACGGUCG | -1.2 ± 0.087 | -0.266 ± 0.12
66 | AUCAAGCAAUAUUACGAUCA | -1.14 ± 0.1 | -0.582 ± 0.11
67 | ACGCAGCAAUAUUACGGCCU | 0.271 ± 0.063 | 0.881 ± 0.091
68 | GACUAGCAAUAUUACGCCCG | -1.77 ± 0.24 | -0.58 ± 0.28
69 | GCCUAGCAAUAUUACGUGAU | -0.0579 ± 0.072 | 0.159 ± 0.079
70 | AAUGAGCAAUAUUACGCAGG | -2.85 ± 0.14 | -3.18 ± 0.29
71 | CACUAGCAAUAUUACGGGAU | -4.27 ± 0.21 | -2.58 ± 0.15
72 | AACGAGCAAUAUUACGUUAU | -3.69 ± 0.16 | -1.52 ± 0.11
73 | AUAGAGCAAUAUUACGAAAG | -3.24 ± 0.2 | -2.05 ± 0.22
74 | ACUGAGCAAUAUUACGUAGU | -3.48 ± 0.19 | -2.41 ± 0.25
75 | GGGCAGCAAUAUUACGGUGG | -3.42 ± 0.17 | -1.86 ± 0.16
76 | GAUAAGCAAUAUUACGUGGA | -3.96 ± 0.38 | -2.55 ± 0.17
77 | CUGAAGCAAUAUUACGGUUG | -0.0856 ± 0.068 | 0.139 ± 0.096
78 | ACACAGCAAUAUUACGAGAC | -3.25 ± 0.14 | -2.54 ± 0.17

From the supplement of paper PMC7877785
